Assay results from patent US20140308285A1 (Amgen, published 2014).
Blank lines part the entries; values can stand above or below the binder they belong to.

Columns and labels:
[1] = biological target: T1, human CD3 (CD3 epsilon chain) on human T cells (human, UniProt P07766 22-207); assay: FACS on isolated human T cells, FITC anti-human light chain secondary antibody
T1 construct: The assay used isolated human T cells, which carry CD3 as part of the TCR-CD3 complex; also called CD3ε
Description: The heterodimeric bispecific antibodies described in Example 1 were produced in HEK 293 cells and were assayed by fluorescence activated cell sorting (FACS) for binding to T cells, which express CD3, and to a human ovarian cancer cell line, Ovcar-8, which expresses mesothelin. Briefly, the heterodimeric bispecific antibodies were incubated with about 50,000 Ovcar-8 cells or isolated human or cynomolgus monkey T cells at 4° C. for one hour. The cells were then washed and stained with a fluorescein isothiocyanate (FITC)-conjugated anti-human light chain secondary antibody and analyzed by flow cytometry. The relative binding was represented by the geometric mean of fluorescence intensity.

[2] = biological target: T2, folate receptor 1 (FOLR1) on tumor cell lines (Cal-51, T47D) (human, UniProt P15328 25-234); assay: cell-based or functional assay
T2 sequence (P15328 25-234, stated change not applied): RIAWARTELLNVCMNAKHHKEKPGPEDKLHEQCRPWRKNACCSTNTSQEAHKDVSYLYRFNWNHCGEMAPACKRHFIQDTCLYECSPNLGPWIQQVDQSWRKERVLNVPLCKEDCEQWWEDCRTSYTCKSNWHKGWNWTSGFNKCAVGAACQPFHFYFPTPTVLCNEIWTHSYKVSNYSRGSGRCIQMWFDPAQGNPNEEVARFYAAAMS

[3] = biological target: T2, folate receptor 1 (FOLR1) on tumor cell …; assay: cell-based or functional assay; remark: listed apart in the source

T1 sequence (P07766 22-207 limits assumed): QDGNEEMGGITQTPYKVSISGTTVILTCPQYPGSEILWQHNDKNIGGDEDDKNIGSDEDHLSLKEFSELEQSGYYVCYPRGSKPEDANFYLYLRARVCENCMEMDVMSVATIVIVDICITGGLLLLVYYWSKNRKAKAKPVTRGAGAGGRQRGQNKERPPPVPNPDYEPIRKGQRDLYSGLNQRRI

B1: P69058.3 (bispecific antibody)
chain 1: QVQLQESGPGLVKPSQTLSLTCTVSGGSINNNNYYWTWIRQHPGKGLEWIGYIYYSGSTFYNPSLKSRVTISVDTSKTQFSLKLSSVTAADTAVYYCAREDTMTGLDVWGQGTLVTVSSGGGGSGGGGSSSYELTQPPSVSVSPGQTARITCSGDALPKKYAYWYQQKSGQAPVLVIYEATKRPSGIPERFSGSSSGTMATLTLSGAQVEDEADYYCYSTDSTNYHWVFGGGTKLTVLGASTKGPSVFPLAPCSRSTSESTAALGCLVKDYFPEPVTVSWNSGALTSGVHTFPAVLQSSGLYSLSSVVTVPSSNFGTQTYTCNVDHKPSNTKVDKTVGGGGSAAAVPRDLEVVAATPTSLLISWDAPHHGVAYYRITYGETGGNSPVQEFTVPGSKSTATISGLKPGVDYTINVYAVLAYPRGYPLSKPISINYRTDYKDDDDKGSSHHHHHH
chain 2: EVQLVESGGGLVKPGVSLRLSCAASGFTFSRYGMNWVRQAPGKGLEWVSSISSSGTYIKYADSVKGRFTISRDNAKNSLNLQMNSLRAEDTAVYYCARDRDRYPLDYWGQGTLVTVSSGGGGSGGGGSDIQMTQSPSSLSASVGDRVTITCRASQSINNYLNWYQQKPGKAPTLLIYAASSLQSGVPSRFSGSRSGTDFTLTISSLQPEDFAAYFCQQTYSNPTFGQGTKVEVKRTVAAPSVFIFPPSDEQLKSGTASVVCLLNNFYPREAKVQWKVDNALQSGNSQESVTEQDSKDSTYSLSSTLTLSKADYEKHKVYACEVTHQGLSSPVTKSFNRGEC
FACS binding (geometric mean) [1]: 290

B2: P69059.3 (bispecific antibody)
chain 1: SYELTQPPSVSVSPGQTARITCSGDALPKKYAYWYQQKSGQAPVLVIYEATKRPSGIPERFSGSSSGTMATLTLSGAQVEDEADYYCYSTDSTNYHWVFGGGTKLTVLGGGGGSGGGGSQVQLQESGPGLVKPSQTLSLTCTVSGGSINNNNYYWTWIRQHPGKGLEWIGYIYYSGSTFYNPSLKSRVTISVDTSKTQFSLKLSSVTAADTAVYYCAREDTMTGLDVWGQGTTVTVSSASTKGPSVFPLAPCSRSTSESTAALGCLVKDYFPEPVTVSWNSGALTSGVHTFPAVLQSSGLYSLSSVVTVPSSNFGTQTYTCNVDHKPSNTKVDKTVGGGGSAAAVPRDLEVVAATPTSLLISWDAPHHGVAYYRITYGETGGNSPVQEFTVPGSKSTATISGLKPGVDYTINVYAVLAYPRGYPLSKPISINYRTDYKDDDDKGSSHHHHHH
chain 2: DIQMTQSPSSLSASVGDRVTITCRASQSINNYLNWYQQKPGKAPTLLIYAASSLQSGVPSRFSGSRSGTDFTLTISSLQPEDFAAYFCQQTYSNPTFGQGTKVEVKGGGGSGGGGSEVQLVESGGGLVKPGVSLRLSCAASGFTFSRYSMNWVRQAPGKGLEWVSSISSSGTYIKYADSVKGRFTISRDNAKNSLNLQMNSLRAEDTAVYYCARDRDRYPLDYWGQGTLVTVSSRTVAAPSVFIFPPSDEQLKSGTASVVCLLNNFYPREAKVQWKVDNALQSGNSQESVTEQDSKDSTYSLSSTLTLSKADYEKHKVYACEVTHQGLSSPVTKSFNRGEC
FACS binding (geometric mean) [1]: 179

The remaining lines, values ahead:

EC50 (pM) for cytokine release, IFN-γ, in presence of T47D cells [2]: 27.1 pM
EC50 (pM) for cytokine release, IL-2, in presence of T47D cells [2]: 20.3 pM
EC50 (pM) for cytokine release, IL-10, in presence of T47D cells [2]: 28.3 pM
EC50 (pM) for cytokine release, IL-13, in presence of T47D cells [2]: 27.8 pM
EC50 (pM) for cytokine release, TNF-α, in presence of T47D cells [2]: 12.5 pM
EC50 of specific lysis, Cal-51 cells (printed Cal-61) with human T cells [3]: 1.21 pM
EC50 of specific lysis, T47D cells with human T cells [3]: 1.26 pM
B3: P136795.3 (bispecific antibody)
chain 1: EVQLVESGGGLVQPGGSLKLSCAASGFTFNSYAMNWVRQAPGKGLEWVARIRSKYNNYATYYADSVKGRFTISRDDSKNTAYLQMNNLKTEDTAVYYCVRHGNFGNSYVSWWAYWGQGTLVTVSSGGGGSGGGGSQSVLTQPPSVSEAPRQRVTISCSGSSSNIGNNAVNWYQQLPGKAPKLLIYYDDMLSSGVSDRFSGSKSGTSASLAISGLQSEDEADYYCAAWDDSLNGVVFGGGTKLTVLASTKGPSVFPLAPCSRSTSESTAALGCLVKDYFPEPVTVSWNSGALTSGVHTFPAVLQSSGLYSLSSVVTVPSSNFGTQTYTCNVDHKPSNTKVDKTVGGGGSAAAEPKSSDKTHTCPPCPAPEAAGGPSVFLFPPKPKDTLMISRTPEVTCVVVDVSHEDPEVKFNWYVDGVEVHNAKTKPREEQYNSTYRVVSVLTVLHQDWLNGKEYKCKVSNKALPAPIEKTISKAKGQPREPQVYTLPPSREEMTKNQVSLTCLVKGFYPSDIAVEWESNGQPENNYDTTPPVLDSDGSFFLYSDLTVDKSRWQQGNVFSCSVMHEALHNHYTQKSLSLSPGK
chain 2: not shown

FACS binding (geometric mean) [1]: 354
B4: H71362.2 (bispecific antibody)
chain 1: EVQLVESGGGLVKPGVSLRLSCAASGFTFSRYGMNWVRQAPGKGLEWVSSISSSGTYIKYADSVKGRFTISRDNAKNSLNLQMNSLRAEDTAVYYCARDRDRYPLDYWGQGTLVTVSSASTKGPQVQLQESGPGLVKPSETLSLTCTVSGGSIISHYWSWIRQPPGKGLEWIGYIYYSGSTNYNPSLKSRVTISVDTSKNQFSLKLTSVTAADTAVYYCARDGWSAFDYWGQGTLVTVSSASTKGPSVFPLAPCSRSTSESTAALGCLVKDYFPEPVTVSWNSGALTSGVHTFPAVLQSSGLYSLSSVVTVPSSNFGTQTYTCNVDHKPSNTKVDKTVGGGGSAAAVPRDLEVVAATPTSLLISWDAIGLYPYYYRITYGETGGNSPVQEFTVPGSKSTATISGLKPGVDYTITVYAVSGIFGWNNSKPISINYRTGSSDYKDDDDKGSSHHHHHH
chain 2: SYELTQPPSVSVSPGQTARITCSGDALPKKYAYWYQQKSGQAPVLVIYEATKRPSGIPERFSGSSSGTMATLTLSGAQVEDEADYYCYSTDSTNYHWVFGGGTKLTVLGTVAAPDIQMTQSPSSLSASVGDRVTITCRASQGIRNALGWYQQKPGKAPKRLIYAASSLQSGVPSRFSGSGSGTEFTLTISSLQPEDFATYYCLQHNSYPRTFGQGTKVEIRRTVAAPSVFIFPPSDEQLKSGTASVVCLLNNFYPREAKVQWKVDNALQSGNSQESVTEQDSKDSTYSLSSTLTLSKADYEKHKVYACEVTHQGLSSPVTKSFNRGEC
